# Measured values as given in patent US20030044400A1, “Composition and method for treating cells” (priority 2001, published 2003).
# Several values for one entry are separate records, joined by “and”; a condition that tells them apart may be missing. Equal values may be shown once.
# Experiment: Rabbit Study to Determine the Safety of Fetuin by Intravenous Administration
# Assay type: in vivo
# Set-up: Temp Increase / Wt. Gain Mar. 6, 2000 / Wt. Gain April 6, 2000 / Wt. Gain April 19, 2000 / Mean of Wt.Gain / Globulin / Alanine Transferase / Aspartate Transferase / Mean of ALT / Mean of AST: unit not given here
# Conditions: rabbits; for Temp Increase: monitored 3 hours post injection; for Blood Glucose Level / Mean of blood Glucose level: non-fasting; for Wt. Gain: over 7 week period; for Albumin / Globulin: serum
# Experimental: Rabbits weighing 1.75 to 2.5 kg are used in the study, 2 rabbits/group. The control group receives 1 ml of saline. […] All dilutions are made with sterile pyrogen free saline (0.9%). The study is designed to limit to an acceptable level the risk of a febrile reaction in patients. The animals are given their respective doses of Fetuin at two-day interval for a total of three doses if no reaction occurs. Blood samples are collected for a baseline prior to treatment and then 24-36 hours after the third treatment. At the end of the treatment period, blood is drawn to perform hematology to compare with the baseline levels. The body temperature is recorded for three hours post injection to determine if a febrile reaction is produced. The body temperature is monitored prior to injection (30 min) and then at 30 min interval for three hours. Prior to sacrifice, blood is drawn from each animal to determine the serum level of Fetuin. Organs are examined in all animals. The target organs: spleen, lymph nodes, thymus are examined for evidence of increased size. All tissues excised are preserved in 10% formalin for subsequent histopathology if necessary. Observations made at each dose level are tabulated to see if there is any correlation of symptoms and/or mortality and dose level of the test material. Body weights and necropsy results are recorded. Rabbit body temperature increases for each dose level is reported and conclusions made from the study.
substance,measurement,setting,value
"Fetuin: Fetal bovine fetuin purified from fetal bovine serum by modified Spiro method; 60 Kd glycoprotein, homologue of alpha 2-HS glycoprotein",signs of distress during the test,,None of the animals displayed any signs of distress
same,"toxicity, conclusion of rabbit study",iv,no toxicity
same,Alanine Transferase,"iv, 65.7 mg/kg",54 and 29
same,Albumin/Globulin Ratio,"iv, 65.7 mg/kg",13.8 and 11.2
same,Aspartate Transferase,"iv, 65.7 mg/kg",28 and 32
same,Blood Urea Nitrogen,"iv, 65.7 mg/kg",21 mg/dL and 24 mg/dL
same,Cholesterol,"iv, 65.7 mg/kg",69 mg/dL and 71 mg/dL
same,Cholesterol Mean,"iv, 65.7 mg/kg",70 mg/dL
same,Hematocrit,"iv, 65.7 mg/kg",37.0% and 40.2%
same,Hematocrit % Mean,"iv, 65.7 mg/kg",38.6%
same,Hemoglobin,"iv, 65.7 mg/kg",12.6 g/dL and 13.4 g/dL
same,Hemoglobin Mean,"iv, 65.7 mg/kg",13.0 g/dL
same,Mean of ALT,"iv, 65.7 mg/kg",41.5
same,Mean of AST,"iv, 65.7 mg/kg",30
same,Mean of BUN,"iv, 65.7 mg/kg",22.5 mg/dL
same,Mean of WBC,"iv, 65.7 mg/kg",8.5 K/ul
same,Mean of Wt.Gain,"iv, 65.7 mg/kg",1.14
same,Spleen Wt.,"iv, 65.7 mg/kg",1.72 g and 1.54 g
same,Spleen Wt. Mean,"iv, 65.7 mg/kg",1.63 g
same,Thymus Wt.,"iv, 65.7 mg/kg",5.21 g and 6.56 g
same,Thymus Wt. Mean,"iv, 65.7 mg/kg",5.85 g
same,Ttl Serum Protn,"iv, 65.7 mg/kg",5.9 g/dL and 6.1 g/dL
same,"WBC, K/ul","iv, 65.7 mg/kg",6.9 K/ul and 10.1 K/ul
same,"Wt. Gain April 6, 2000","iv, 65.7 mg/kg",3.15 and 3.28
same,"Wt. Gain April 19, 2000","iv, 65.7 mg/kg",3.65 and 3.72
same,"Wt. Gain Mar. 6, 2000","iv, 65.7 mg/kg",2.48 and 2.61
same,Temp Increase,"iv, 65.7 mg/kg, Apr. 6, 2000",0
same,Temp Increase,"iv, 65.7 mg/kg, Mar. 6, 2000",0
same,Blood Glucose Level,"iv, 65.7 mg/kg",94 mg/dL and 88 mg/dL
same,Mean of blood Glucose level,"iv, 65.7 mg/kg",91 mg/dL
same,Wt. Gain,"iv, 65.7 mg/kg",1.17 kg and 1.11 kg
same,Albumin,"iv, 65.7 mg/kg",5.5 and 5.6
same,Globulin,"iv, 65.7 mg/kg",0.4 and 0.5
same,Alanine Transferase,"iv, 126 mg/kg",42 and 32
same,Albumin/Globulin Ratio,"iv, 126 mg/kg",8.8
same,Aspartate Transferase,"iv, 126 mg/kg",37 and 66
same,Blood Urea Nitrogen,"iv, 126 mg/kg",20 mg/dL and 17 mg/dL
same,Cholesterol,"iv, 126 mg/kg",66 mg/dL and 49 mg/dL
same,Cholesterol Mean,"iv, 126 mg/kg",57.5 mg/dL
same,Hematocrit,"iv, 126 mg/kg",38.2% and 38.6%
same,Hematocrit % Mean,"iv, 126 mg/kg",38.4%
same,Hemoglobin,"iv, 126 mg/kg",12.4 g/dL and 12.9 g/dL
same,Hemoglobin Mean,"iv, 126 mg/kg",12.6 g/dL
same,Mean of ALT,"iv, 126 mg/kg",37
same,Mean of AST,"iv, 126 mg/kg",51.5
same,Mean of BUN,"iv, 126 mg/kg",18.5 mg/dL
same,Mean of WBC,"iv, 126 mg/kg",8.1 K/ul
same,Mean of Wt.Gain,"iv, 126 mg/kg",0.76
same,Spleen Wt.,"iv, 126 mg/kg",1.37 g and 1.9 g
same,Spleen Wt. Mean,"iv, 126 mg/kg",1.43 g
same,Thymus Wt.,"iv, 126 mg/kg",4.90 g and 5.21 g
same,Thymus Wt. Mean,"iv, 126 mg/kg",5.05 g
same,Ttl Serum Protn,"iv, 126 mg/kg",5.9 g/dL
same,"WBC, K/ul","iv, 126 mg/kg",6.7 K/ul and 9.5 K/ul
same,"Wt. Gain April 6, 2000","iv, 126 mg/kg",3.31 and 3.10
same,"Wt. Gain April 19, 2000","iv, 126 mg/kg",3.56 and 3.26
same,"Wt. Gain Mar. 6, 2000","iv, 126 mg/kg",2.60 and 2.70
same,Temp Increase,"iv, 126 mg/kg, Apr. 6, 2000",0
same,Temp Increase,"iv, 126 mg/kg, Mar. 6, 2000",0
same,Blood Glucose Level,"iv, 126 mg/kg",221 mg/dL and 123 mg/dL
same,Mean of blood Glucose level,"iv, 126 mg/kg",172 mg/dL
same,Wt. Gain,"iv, 126 mg/kg",0.96 kg and 0.56 kg
same,Albumin,"iv, 126 mg/kg",5.3
same,Globulin,"iv, 126 mg/kg",0.6
same,Alanine Transferase,"iv, 185 mg/kg",49 and 36
same,Albumin/Globulin Ratio,"iv, 185 mg/kg",5.8 and 10.2
same,Aspartate Transferase,"iv, 185 mg/kg",26 and 23
same,Blood Urea Nitrogen,"iv, 185 mg/kg",19 mg/dL and 22 mg/dL
same,Cholesterol,"iv, 185 mg/kg",35 mg/dL and 56 mg/dL
same,Cholesterol Mean,"iv, 185 mg/kg",45.5 mg/dL
same,Hematocrit,"iv, 185 mg/kg",35.2% and 37.3%
same,Hematocrit % Mean,"iv, 185 mg/kg",36.3%
same,Hemoglobin,"iv, 185 mg/kg",11.4 g/dL and 12.3 g/dL
same,Hemoglobin Mean,"iv, 185 mg/kg",11.8 g/dL
same,Mean of ALT,"iv, 185 mg/kg",42.5
same,Mean of AST,"iv, 185 mg/kg",24.5
same,Mean of BUN,"iv, 185 mg/kg",20.5 mg/dL
same,Mean of WBC,"iv, 185 mg/kg",8.75 K/ul
same,Mean of Wt.Gain,"iv, 185 mg/kg",1.02
same,Spleen Wt.,"iv, 185 mg/kg",1.71 g and 1.64 g
same,Spleen Wt. Mean,"iv, 185 mg/kg",1.67 g
same,Thymus Wt.,"iv, 185 mg/kg",5.26 g and 5.60 g
same,Thymus Wt. Mean,"iv, 185 mg/kg",5.43 g
same,Ttl Serum Protn,"iv, 185 mg/kg",6.1 g/dL and 5.6 g/dL
same,"WBC, K/ul","iv, 185 mg/kg",10.7 K/ul and 6.8 K/ul
same,"Wt. Gain April 6, 2000","iv, 185 mg/kg",3.19 and 3.26
same,"Wt. Gain April 19, 2000","iv, 185 mg/kg",3.69 and 3.77
same,"Wt. Gain Mar. 6, 2000","iv, 185 mg/kg",2.80 and 2.61
same,Temp Increase,"iv, 185 mg/kg, Apr. 6, 2000",0
same,Temp Increase,"iv, 185 mg/kg, Mar. 6, 2000",0
same,Blood Glucose Level,"iv, 185 mg/kg",117 mg/dL and 89 mg/dL
same,Mean of blood Glucose level,"iv, 185 mg/kg",103 mg/dL
same,Wt. Gain,"iv, 185 mg/kg",0.89 kg and 1.16 kg
same,Albumin,"iv, 185 mg/kg",5.2 and 5.1
same,Globulin,"iv, 185 mg/kg",0.9 and 0.5
same,rectal temperature change over 3 hr post injection,any dosages of Fetuin,did not cause body temperature increase
